Assay results as given in patent US20240181006A1 (Merck KGaA, published 2024).
One block for each binder: values may come before it.

What was measured:
[1] = molecular target: T1, cynomolgus ADAMTS5 (cynomolgus, UniProt A0A2K5X879 260-620); test: KinExA, in solution (N=1)
T1 construct: also called cyno ADAMTS5
T1 sequence: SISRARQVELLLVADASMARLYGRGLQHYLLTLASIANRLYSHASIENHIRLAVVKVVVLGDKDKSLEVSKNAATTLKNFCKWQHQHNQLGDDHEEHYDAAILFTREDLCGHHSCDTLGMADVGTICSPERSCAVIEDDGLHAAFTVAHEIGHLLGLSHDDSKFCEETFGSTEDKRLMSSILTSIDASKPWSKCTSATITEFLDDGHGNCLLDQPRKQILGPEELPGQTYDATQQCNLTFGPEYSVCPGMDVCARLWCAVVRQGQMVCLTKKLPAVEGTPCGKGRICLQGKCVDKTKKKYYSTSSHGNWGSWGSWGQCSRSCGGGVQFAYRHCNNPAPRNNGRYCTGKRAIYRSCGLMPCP
Description: (§1) All dilutions were prepared in sample buffer (PBS+0.1% BSA+0.02% NaN₃).
(§2) Percent free Nanobody construct was plotted as a function of ADAMTS5 concentration and fitted using the KinExA Pro Software v3.6.5 to determine the KD.

[2] = molecular target: T2, rat ADAMTS5 (rat, UniProt Q6TY19 262-928); test: KinExA, in solution (N=1)
T2 sequence: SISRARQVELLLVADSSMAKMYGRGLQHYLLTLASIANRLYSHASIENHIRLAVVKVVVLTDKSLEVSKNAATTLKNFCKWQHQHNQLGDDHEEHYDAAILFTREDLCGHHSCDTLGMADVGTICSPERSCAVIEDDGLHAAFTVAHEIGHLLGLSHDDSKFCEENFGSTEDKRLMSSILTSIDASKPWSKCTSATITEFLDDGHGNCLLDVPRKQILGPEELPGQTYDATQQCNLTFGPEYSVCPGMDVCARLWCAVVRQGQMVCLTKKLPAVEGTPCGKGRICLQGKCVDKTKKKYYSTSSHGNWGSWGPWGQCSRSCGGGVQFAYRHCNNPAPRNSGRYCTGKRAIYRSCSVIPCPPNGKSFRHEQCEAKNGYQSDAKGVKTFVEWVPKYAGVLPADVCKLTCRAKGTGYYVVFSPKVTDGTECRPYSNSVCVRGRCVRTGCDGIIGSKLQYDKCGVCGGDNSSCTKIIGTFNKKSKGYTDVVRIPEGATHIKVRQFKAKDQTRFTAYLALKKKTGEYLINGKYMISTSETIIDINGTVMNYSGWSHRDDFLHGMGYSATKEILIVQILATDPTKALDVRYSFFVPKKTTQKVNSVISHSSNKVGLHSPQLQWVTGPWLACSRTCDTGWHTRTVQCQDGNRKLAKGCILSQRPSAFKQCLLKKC
Description: as §1, §2

[3] = molecular target: T3, human ADAMTS5 (human, UniProt Q9UNA0 262-622, limits assumed); test: cell-based or functional assay
T3 sequence: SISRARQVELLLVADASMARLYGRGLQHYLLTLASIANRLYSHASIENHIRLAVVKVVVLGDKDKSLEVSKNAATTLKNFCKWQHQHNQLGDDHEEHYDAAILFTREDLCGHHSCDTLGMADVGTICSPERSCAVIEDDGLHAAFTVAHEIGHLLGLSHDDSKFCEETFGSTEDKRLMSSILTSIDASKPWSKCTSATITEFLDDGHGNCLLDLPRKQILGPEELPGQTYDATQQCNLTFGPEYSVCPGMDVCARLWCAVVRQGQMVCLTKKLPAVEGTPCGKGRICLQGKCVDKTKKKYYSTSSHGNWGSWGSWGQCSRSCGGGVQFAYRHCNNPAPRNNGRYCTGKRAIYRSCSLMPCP

[4] = molecular target: T1, cynomolgus ADAMTS5; test: cell-based or functional assay
[5] = molecular target: T4, rat MMP13 (activated) (rat, UniProt P23097 99-466); test: cell-based or functional assay
[6] = molecular target: T5, human MMP13 catalytic domain (human, UniProt P45452 104-274); test: cell-based or functional assay
[7] = molecular target: T6, cynomolgus MMP13 catalytic domain (cynomolgus, UniProt A0A2K5U988 104-274); test: cell-based or functional assay
[8] = molecular target: T7, rat MMP13 catalytic domain (rat, UniProt P23097 99-269); test: cell-based or functional assay
[9] = molecular target: T3, human ADAMTS5; test: KinExA, in solution, without Aggrecan G1-IGD-G2 (average, N=3)
Description: as §1, §2

[10] = molecular target: T4, rat MMP13 (activated); test: FRET-based kinetic enzyme assay, IC50 equals KI (average, N=2)
Description: (§3) All dilutions were made in assay buffer (50 mM Tris (pH 7.5), 100 mM NaCl, 10 mM CaCl₂)*2H₂O, 0.01% Tween20). […] This collagen-based substrate contains the generic MMP cleavage sequence Proline-Leucine-Glycine-Leucine (PLGL) and is labelled with a fluorochrome, Mca, and a quencher, Dpa. […] Starting within one minute after addition of the substrate, fluorescence was measured kinetically every minute for a total of 120 cycles (2 hours) using a Tecan F200 plate reader.
(§4) The obtained progress curves (fluorescent signal in function of reaction time) were analyzed using GraphPad Prism software, by fitting the linear portion of each progress curve with a straight line (Y=slope*X+Y-intercept).

[11] = molecular target: T8, human MMP13 (activated) (human, UniProt P45452 104-471); test: FRET-based kinetic enzyme assay, IC50 equals KI (average, N=3)
T8 construct: also called human pro MMP13
Description: as §3, §4

[12] = molecular target: T6, cynomolgus MMP13 catalytic domain; test: as above
Description: as §3, §4

[13] = molecular target: T7, rat MMP13 catalytic domain; test: as above
Description: as §3, §4

[14] = molecular target: T5, human MMP13 catalytic domain; test: FRET-based kinetic enzyme assay, IC50 equals KI (average, N=6)
Description: as §3, §4

[15] = molecular target: T3, human ADAMTS5; test: KinExA, in solution, in presence of 2 nM Aggrecan G1-IGD-G2 (average, N=3)
Description: as §1, §2

[16] = molecular target: T9, recombinant cynomolgus Aggrecan G1-IGD-G2 (cynomolgus); test: SPR (ProteOn XPR36), Aggrecan G1-IGD-G2 immobilized, 949 as analyte (average, N=2)
T9 construct: domain: G1-IGD-G2; also called Cy G1-IGD-G2
Description: (§5) Dissociation time was 10 min. After each sample injection the surfaces were regenerated with 10 mM glycine pH 1.5. […] This change in refractive index causes a change in the intensity and angle of reflected light which is quantitatively measured in real-time and plotted as response units (RU) versus time on a sensorgram. The kinetic constants were calculated from the obtained sensorgrams using ProteOn Manager 3.1.0 version 3.1.0.6 software and the ‘kinetic Langmuir kₐ/kd simultaneous’ model.

[17] = molecular target: T10, recombinant rat Aggrecan G1-IGD-G2 (rat, UniProt P07897 20-684, limits assumed); test: SPR (ProteOn XPR36), Aggrecan G1-IGD-G2 immobilized, 949 as analyte (average, N=3)
T10 construct: domain: G1-IGD-G2; also called Rat G1-IGD-G2
Description: as §5

[18] = molecular target: T11, recombinant human Aggrecan G1-IGD-G2 (human, UniProt P16112 20-676); test: SPR (ProteOn XPR36), Aggrecan G1-IGD-G2 immobilized, 949 as analyte (average, N=4)
T11 construct: also called Hu G1-IGD-G2
Description: as §5

[19] = molecular target: T8, human MMP13 (activated); test: cell-based or functional assay
[20] = molecular target: T4, rat MMP13 (activated); test: cell-based or functional assay; remark: listed apart in the source
[21] = molecular target: dog MMP13 (activated) (dog, UniProt A0A8I3MWY2 129-496); test: cell-based or functional assay
[22] = molecular target: bovine MMP13 (activated) (bovine, UniProt O77656 104-471, limits assumed); test: cell-based or functional assay
[23] = molecular target: cynomolgus MMP13 (activated) (cynomolgus, UniProt A0A2K5U988 104-471); test: cell-based or functional assay
[24] = molecular target: T3, human ADAMTS5; test: cell-based or functional assay; remark: listed apart in the source
[25] = molecular target: T3, human ADAMTS5; test: SPR (Biacore T100), ADAMTS5 immobilized on CM5, 100 nM ISVD, Experiment 1
Description: (§6) Species cross-reactivity was initially evaluated via SPR-based off-rate analysis on a Biacore T100 instrument. Polypeptides were tested for binding to human, cynomolgus monkey (“cyno”), guinea pig, mouse, and bovine ADAMTS5. To this end, recombinant ADAMTS5 was immobilized onto a CM5 chip via amine coupling using EDC and NHS. […] Off-rate for each individual ADAMTS5 was determined by fitting a 1:1 interaction model (Langmuir model) onto the individual dissociation curves using the BIA Evaluation software. As a reference, off-rates on human ADAMTS5 were determined in each experiment.

[26] = molecular target: T1, cynomolgus ADAMTS5; test: as above
Description: as §6

[27] = molecular target: guinea pig ADAMTS5 (guinea pig); test: as above
Description: as §6

[28] = molecular target: T3, human ADAMTS5; test: SPR (Biacore T100), ADAMTS5 immobilized on CM5, 100 nM ISVD, Experiment 2
Description: as §6

[29] = molecular target: T12, mouse ADAMTS5 (mouse, UniProt Q9R001 262-622, limits assumed); test: as above
T12 sequence (looked up): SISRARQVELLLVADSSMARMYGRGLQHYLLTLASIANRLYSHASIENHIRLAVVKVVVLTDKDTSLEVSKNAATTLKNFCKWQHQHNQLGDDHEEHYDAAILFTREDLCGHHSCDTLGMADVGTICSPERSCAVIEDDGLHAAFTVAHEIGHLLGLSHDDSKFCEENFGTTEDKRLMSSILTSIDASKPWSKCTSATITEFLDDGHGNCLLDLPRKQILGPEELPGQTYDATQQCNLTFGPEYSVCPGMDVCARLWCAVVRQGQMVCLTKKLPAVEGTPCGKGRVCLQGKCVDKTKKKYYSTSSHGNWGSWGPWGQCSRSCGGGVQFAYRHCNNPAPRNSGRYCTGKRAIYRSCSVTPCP
Description: as §6

[30] = molecular target: T3, human ADAMTS5; test: SPR (Biacore T100), ADAMTS5 immobilized on CM5, 100 nM ISVD, Experiment 3
Description: as §6

Kd [1]: 0.0244 nM | Kd [2]: 0.0252 nM | IC50 (read off the curve); FRET-based enzymatic activity assay, Vi/V0 [3]: ~4 nM | IC50 (read off the curve); FRET-based enzymatic activity assay, Vi/V0 [4]: 3 to 4 nM | IC50 (read off the curve); FRET-based enzymatic activity assay, Vi/V0 [right panel] [5]: ~10 nM | IC50 (read off the curve); FRET-based enzymatic activity assay, Vi/V0 [left panel] [6]: ~30 nM | IC50 (read off the curve); FRET-based enzymatic activity assay, Vi/V0 [left panel] [7]: ~20 nM | IC50 (read off the curve); FRET-based enzymatic activity assay, Vi/V0 [left panel] [8]: ~30 nM | Kd [9]: 0.0327 nM | Ki [10]: 13 nM | Ki [11]: 2.92 nM | Ki [12]: 20.2 nM | Ki [13]: 26.6 nM | Ki [14]: 27.9 nM | Kd [15]: 0.0266 nM | Kd [16]: 0.016 nM | Kd [17]: 0.0166 nM | Kd [18]: 0.014 nM
B1: polypeptide 949 (62C02-2F03-114F08-114F08, 35GS linkers) (other)
chain: EVQLVESGGGVVQPGGSLRLSCAASGFAFSAAYMSWVRQAPGKGLEWVSSISDDGSKTYYADSVKGRFTISRDNSKNTVYLQMNSLRPEDTALYYCNTGYGATTTRPGRYWGQGTLVTVSSGGGGSGGGGSGGGGSGGGGSGGGGSGGGGSGGGGSEVQLVESGGGVVQPGGSLRLSCAASGRTVSSYAMGWFRQAPGKEREFVAGISRSAERTYYVDSLKGRFTISRDNSKNTVYLQMNSLRPEDTALYYCAADLDPNRIFSREEYAYWGQGTLVTVSSGGGGSGGGGSGGGGSGGGGSGGGGSGGGGSGGGGSEVQLVESGGGVVQPGGSLRLSCAASGSTFIINVVRWYRRAPGKQRELVATISSGGNANYVDSVRGRFTISRDNSKNTVYLQMNSLRPEDTALYYCNVPTTHYGGVYYGPYWGQGTLVTVSSGGGGSGGGGSGGGGSGGGGSGGGGSGGGGSGGGGSEVQLVESGGGVVQPGGSLRLSCAASGSTFIINVVRWYRRAPGKQRELVATISSGGNANYVDSVRGRFTISRDNSKNTVYLQMNSLRPEDTALYYCNVPTTHYGGVYYGPYWGQGTLVTVSSA
notes: Tetravalent, trispecific VHH construct: anti-MMP13, anti-ADAMTS5 and two anti-Aggrecan units; also called C010100949; ALX-1011

IC50, human collagenolytic assay [19]: 1.4 nM | IC50, human fluorogenic collagen assay [19]: 8.3 nM | IC50, human fluorogenic peptide assay [19]: 1.4 nM | IC50, rat fluorogenic peptide assay [20]: 1.1 nM | IC50, dog fluorogenic peptide assay [21]: 1 nM | IC50, bovine fluorogenic peptide assay [22]: 3.1 nM | IC50, cyno fluorogenic peptide assay [23]: 1.4 nM
B2: anti-MMP13 ISVD 62C02 (VHH)
VHH: EVQLVESGGGVVQPGGSLRLSCAASGFAFSAAYMSWVRQAPGKGLEWVSSISDDGSKTYYADSVKGRFTISRDNSKNTVYLQMNSLRPEDTALYYCNTGYGATTTRPGRYWGQGTLVTVSS

IC50, Human AlphaLISA enzymatic assay [24]: 0.075 nM | IC50, Human FRET enzymatic assay [24]: 1.8 nM | koff [25]: 3.3e-05 s⁻¹ | koff [26]: 2.2e-05 s⁻¹ | koff [27]: 3.4e-05 s⁻¹ | koff [28]: 6.5e-05 s⁻¹ | koff [29]: 0.00029 s⁻¹ | koff [30]: 9.7e-05 s⁻¹
B3: anti-ADAMTS5 ISVD 02F03 (VHH)
VHH: EVQLVESGGGVVQPGGSLRLSCAASGRTVSSYAMGWFRQAPGKEREFVAGISRSAERTYYVDSLKGRFTISRDNSKNTVYLQMNSLRPEDTALYYCAADLDPNRIFSREEYAYWGQGTLVTVSS
notes: Purified monovalent ISVD; also called 2F03 ATS5
